Experiments:
ROS 17/2.8 cells = assay: Apoptosis of ROS 17/2.8 cells on exposure to TRAP (morphology, alkaline phosphatase stain); format: cell-based; details: 0.1% DMSO, then TRAP 5 ug/mL
Description: DMSO, at this low concentration, itself won't cause any toxic effect on cells but can scavenge most of reactive oxygen species. […] Therefore, the TRAP-induced cell apoptosis is not due to a reactive oxygen species effect.

[1] = tested on: rat calvarial osteoblasts after 14 days of culture; assay: Cleaved caspase 3 and cleaved PARP levels; format: cell-based; details: day 14 cells, FIGS. 24 and 25
Description: Biochemical confirmation of the effect of TRAP on osteoblast apoptosis was obtained by assaying levels of caspase-3 and poly ADP-ribose polymerase (PARP) in these cells lines. […] Thus, another indicator of a cells progression through apoptosis is a measurement of its cleaved caspase 3 levels. Similarly, poly ADP-ribose polymerase is a substrate for active caspase 3 and increased levels of cleave PARP are indicative of an active caspase.

[2] = biological target: T1, TGFβRII, HIS-TRIP and Smad 2 (Homo sapiens, UniProt Q13347); assay: GST-TRAP pull-down of receptor complex from transfected 293T cells; format: binding; details: exogenous GST-TRAP 12 hours
T1 construct: expressed in transfected cells; host or cells: 293T cells transfected with TGFβRII and His-TRIP-1; Smad 2 endogenous
T1 sequence (Q13347 whole entry): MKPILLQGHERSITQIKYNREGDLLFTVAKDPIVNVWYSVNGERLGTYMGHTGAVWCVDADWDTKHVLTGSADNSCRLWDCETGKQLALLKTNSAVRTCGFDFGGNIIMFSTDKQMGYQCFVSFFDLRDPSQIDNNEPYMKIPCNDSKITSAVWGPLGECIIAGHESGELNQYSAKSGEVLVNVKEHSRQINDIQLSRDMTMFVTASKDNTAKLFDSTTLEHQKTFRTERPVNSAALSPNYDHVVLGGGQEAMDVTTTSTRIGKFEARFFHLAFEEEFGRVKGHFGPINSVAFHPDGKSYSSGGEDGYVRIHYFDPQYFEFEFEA
T1 sequence (P37173 23-567 partner): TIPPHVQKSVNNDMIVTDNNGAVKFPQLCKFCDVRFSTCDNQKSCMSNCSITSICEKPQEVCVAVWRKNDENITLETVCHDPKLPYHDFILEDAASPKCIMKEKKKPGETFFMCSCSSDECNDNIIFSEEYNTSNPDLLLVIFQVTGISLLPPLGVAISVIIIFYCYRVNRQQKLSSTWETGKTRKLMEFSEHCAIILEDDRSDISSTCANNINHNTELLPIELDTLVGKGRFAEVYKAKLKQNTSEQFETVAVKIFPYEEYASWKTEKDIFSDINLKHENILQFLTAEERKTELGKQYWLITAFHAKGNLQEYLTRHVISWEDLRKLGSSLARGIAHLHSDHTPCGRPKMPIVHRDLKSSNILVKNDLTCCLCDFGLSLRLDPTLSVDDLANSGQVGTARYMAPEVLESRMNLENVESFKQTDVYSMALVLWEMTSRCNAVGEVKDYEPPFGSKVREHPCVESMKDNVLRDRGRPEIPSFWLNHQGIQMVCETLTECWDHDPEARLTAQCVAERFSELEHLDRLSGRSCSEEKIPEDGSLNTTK
T1 sequence (Q15796 2-467 partner limits assumed): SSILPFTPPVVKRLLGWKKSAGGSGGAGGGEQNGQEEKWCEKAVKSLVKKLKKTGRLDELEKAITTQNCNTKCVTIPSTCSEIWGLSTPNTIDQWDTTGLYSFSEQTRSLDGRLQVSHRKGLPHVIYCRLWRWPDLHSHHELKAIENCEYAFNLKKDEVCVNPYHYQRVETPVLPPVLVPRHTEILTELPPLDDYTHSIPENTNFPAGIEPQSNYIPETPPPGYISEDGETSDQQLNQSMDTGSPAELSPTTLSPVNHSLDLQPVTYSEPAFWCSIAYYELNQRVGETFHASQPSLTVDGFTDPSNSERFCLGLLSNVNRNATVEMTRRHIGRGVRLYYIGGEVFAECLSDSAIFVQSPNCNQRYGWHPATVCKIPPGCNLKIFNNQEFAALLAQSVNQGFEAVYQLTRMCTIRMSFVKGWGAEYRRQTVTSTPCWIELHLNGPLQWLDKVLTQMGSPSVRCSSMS
Description: 293T cells were transfected with TGFβRII. Some of these cells were then co-transfected with a “His”-tagged TRIP-1 (His-TRIP-1). In lane A, in which both the receptor and TRIP-1 were present, but GST-TRAP was not added, no parts of the complex could be “pulled down” with glutathione coated beads. The same was true if His-TRIP-1 was not transfected into the cells. However, if the receptor, TRIP-1 and GST-TRAP were all present, a protein complex composed of the receptor, TRIP-1 and Smad 2 could be extracted with glutathione coated beads.
GST-TRAP and GST-TRIP fusion proteins, and GST control protein were purified as instructed by the manufacturer (Amersham Pharmacia). Briefly, plasmids containing GST-fusion protein expressing cDNA were transformed into a BL21DE3)pLysS bacteria strain and selected for ampicillin and chloramphenicol resistant colonies. Selected colonies were grown in LB medium at 30° C. until OD600 reached 0.6 to 1. Then 0.1 mM IPTG was added to medium for 3 hours. Bacteria were lysed by B-PER (Pierce) with 1 mM PMSF. Lysed bacteria were spun down and the supernatants were collected. […]
Detection of HIS-TRIP was performed with anti-HIS antibodies and detection of the TGFβRII and Smad 2 were performed with a commercially available antibodies. […] The beads were extensively washed and the proteins interacting with the beads were analyzed with Western analysis.

Molecule	protection from apoptosis induced by TRAP (ROS 17/2.8 cells)	cleaved caspase 3 and cleaved PARP [1]	proteins pulled down with glutathione beads [2]
C[S+](C)[O-] [DMSO]	did not protect cells from apoptosis induced by TRAP	–	–
GST-TRAP: recombinant fusion protein of GST and TRAP, non-glycosyl protein made in bacteria (protein, left off: a dimerising Fc or GST, recombinant fusion protein of GST and TRAP, non-glycosyl protein made in bacteria) ATPALRFVAVGDWGGVPNAPFHTAREMANAKEIARTVQILGADFILSLGDNFYFTGVQDINDKRFQETFEDVFSDRSLRKVPWYVLAGNHDHLGNVSAQIAYSKISKRWNFPSPFYRLHFKIPQTNVSVAIFMLDTVTLCGNSDDFLSQQPERPRDVKLARTQLSWLKKQLAAAREDYVLVAGHYPVWSIAEHGPTHCLVKQLRPLLATYGVTAYLCGHDHNLQYLQDENGVGYVLSGAGNFMDPSKRHQRKVPNGYLRFHYGTEDSLGGFAYVEISSKEMTVTYIEASGKSLFKTRLPRRARP	–	have the same effect on the cells	the complex of the TGFβRII, HIS-TRIP and Smad 2 can be extracted and detected

From patent US7241732B2, “Compositions and methods involved in bone growth” (University of Rochester, priority 2001, dated 2007)
